Kd data for 3 molecules are collected here from patent publication US20090252724A1 (Hoffmann-La Roche, published 2009).

The target of assay [1] is T1, Aβ1-40 fibers (human).
T1 construct: Synthetic peptide aggregated to fibers in vitro (200 µg/ml, 10 mM Na-acetate pH 4.0, 3 days, 37 °C) and coupled to a CM5 chip; also called Aβ1-40 fibrils; fibrillar Aβ40
In words: SPR (Biacore), Aβ1-40 fibers on CM5, Scatchard; high affinity (bivalent) KD; extrapolated equilibrium responses; stdev 0.10. The protocol:
(§1) Binding of ANTIBODY A to fibrillar Aβ was measured online by surface plasmon resonance (SPR), and the affinities of the molecular interactions were determined as follows: Biacore2000 and Biacore3000 instruments were used for these measurements. Aβ1-40 and Aβ1-42 fibers were generated in vitro by incubation of synthetic peptides at a concentration of 200 μg/ml in 10 mM Na-acetate buffer (pH 4.0) for three days at 37° C. Electron microscopic analysis confirmed a fibrillar structure for both peptides, Aβ1-40 showing predominantly shorter (<1 micron) and Aβ1-42 predominantly longer (>1 micron) fibers. […]
(§2) This coupling procedure included an activation step, during which the carboxylic acid groups on the surface were transferred into chemically reactive succinimide ester groups by contacting the surface with an aqueous mixture of N-hydroxysuccinimide and 1-ethyl-1-(3-[…])-carbodiimide hydrochloride, and an immobilization step, during which the activated surface was contacted with the fibres dissolved in 10 mM acetate buffer (pH 4.5) at 200-350 resonance units (1 resonance unit (RU) corresponds approximately to a surface loading of 1 picogram/mm²). […] Typical time dependent response curves (=sensograms) monitored during the association phase (during contact with buffer) and the dissociation phase (subsequent contact with buffer) are shown in FIG. 7. […]

Assay [2] has as its target T1, Aβ1-40 fibers. The assay can be described thus: SPR (Biacore), Aβ1-40 fibers on CM5, Scatchard; high affinity (bivalent) KD; experimental equilibrium responses. The protocol:
(§3) Binding of ANTIBODY A to fibrillar Aβ was measured online by surface plasmon resonance (SPR), and the affinities of the molecular interactions were determined as follows: Biacore2000 and Biacore3000 instruments were used for these measurements. Aβ1-40 and Aβ1-42 fibers were generated in vitro by incubation of synthetic peptides at a concentration of 200 μg/ml in 10 mM Na-acetate buffer (pH 4.0) for three days at 37° C. Electron microscopic analysis confirmed a fibrillar structure for both peptides, Aβ1-40 showing predominantly shorter (<1 micron) and Aβ1-42 predominantly longer (>1 micron) fibers. These fibers were assumed to represent aggregated Aβ peptides in human AD brain more closely than ill-defined mixtures of amorphous aggregates and unstructured precipitates. The fibers were diluted 1:10 and directly coupled to a CM5 as described in the Instruction Manual of the manufacturer (BIAapplication Handbook, version AB, Biacore AB, Uppsala, 1998).
(§4) This coupling procedure included an activation step, during which the carboxylic acid groups on the surface were transferred into chemically reactive succinimide ester groups by contacting the surface with an aqueous mixture of N-hydroxysuccinimide and 1-ethyl-1-(3-[…])-carbodiimide hydrochloride, and an immobilization step, during which the activated surface was contacted with the fibres dissolved in 10 mM acetate buffer (pH 4.5) at 200-350 resonance units (1 resonance unit (RU) corresponds approximately to a surface loading of 1 picogram/mm²). The fiber loaded surface was then contacted with the antibody solutions in the concentration range 200 nM≧C≧0.15 nM. Typical time dependent response curves (=sensograms) monitored during the association phase (during contact with buffer) and the dissociation phase (subsequent contact with buffer) are shown in FIG. 7.
(§5) Briefly, KD values were calculated by Scatchard type analysis using concentration dependent equilibrium binding responses. These equilibrium binding constants could be obtained in two ways.
On the technique in general: Surface plasmon resonance follows binding to a sensor surface in real time, without labels.

Assay [3] deals with T1, Aβ1-40 fibers. In words: SPR (Biacore), Aβ1-40 fibers on CM5, Scatchard; low affinity (monovalent) KD; experimental equilibrium responses. The protocol: as §3, §4, §5
The target in assay [4] is T1, Aβ1-40 fibers. The assay can be described thus: SPR (Biacore), Aβ1-40 fibers on CM5, Scatchard; low affinity (monovalent) KD; extrapolated equilibrium responses; stdev 8.40. Here is the method:
as §1, §2

Assay [5] has as its target T1, Aβ1-40 fibers. In words: SPR (Biacore), Aβ1-40 fibers on CM5, Scatchard; high affinity (bivalent) KD; extrapolated equilibrium responses; stdev 0.02. The protocol: as §1, §2
The target of assay [6] is T1, Aβ1-40 fibers. The assay can be described thus: SPR (Biacore), Aβ1-40 fibers on CM5, Scatchard; low affinity (monovalent) KD; extrapolated equilibrium responses; stdev 22.33. Here is the method:
as §1, §2

The target in assay [7] is T1, Aβ1-40 fibers. The assay can be described thus: SPR (Biacore), Aβ1-40 fibers on CM5, Scatchard; high affinity (bivalent) KD; extrapolated equilibrium responses; stdev 0.03. Here is the method: as §1, §2
The target in assay [8] is T1, Aβ1-40 fibers. In words: SPR (Biacore), Aβ1-40 fibers on CM5, Scatchard; low affinity (monovalent) KD; extrapolated equilibrium responses; stdev 0.15. The protocol: as §1, §2

B1: ANTIBODY A COMPOSITION (mixture of mono- and double-glycosylated ANTIBODY A) (antibody, human IgG1, kappa, V domains shown)
VH: QVELVESGGGLVQPGGSLRLSCAASGFTFSSYAMSWVRQAPGKGLEWVSAINASGTRTYYADSVKGRFTISRDNSKNTLYLQMNSLRAEDTAVYYCARGKGNTHKPYGYVRYFDVWGQGTLVTVSS
VL: DIVLTQSPATLSLSPGERATLSCRASQSVSSSYLAWYQQKPGQAPRLLIYGASSRATGVPARFSGSGSGTDFTLTISSLEPEDFATYYCLQIYNMPITFGQGTKVEIKR
modifications: N-linked glycan at Asn52 (VH CDR2) on one or on both heavy chains (mixture of the two isoforms); N-linked glycan at Asn306 (Fc)
notes: also called Mixture of mono- and double-glycosylated ANTIBODY A isoforms (1:1)
Take B1: the Kd in assay [1] is 0.49 nM; in assay [2], 0.41 nM; in assay [3] it was 21 nM; in assay [4], 27.2 nM.

B2: double-glycosylated ANTIBODY A (antibody, human IgG1, kappa, V domains shown)
VH: QVELVESGGGLVQPGGSLRLSCAASGFTFSSYAMSWVRQAPGKGLEWVSAINASGTRTYYADSVKGRFTISRDNSKNTLYLQMNSLRAEDTAVYYCARGKGNTHKPYGYVRYFDVWGQGTLVTVSS
VL: DIVLTQSPATLSLSPGERATLSCRASQSVSSSYLAWYQQKPGQAPRLLIYGASSRATGVPARFSGSGSGTDFTLTISSLEPEDFATYYCLQIYNMPITFGQGTKVEIKR
modifications: N-linked glycan at Asn52 (VH CDR2) on both heavy chains; N-linked glycan at Asn306 (Fc)
notes: Human IgG1 kappa, made in CHO cells, separated by cation exchange chromatography; also called double-glycosylated ANTIBODY A isoform; double-glycosylated isoform
As to B2, the Kd is 1.43 nM in assay [5], 18.5 nM in assay [6], 1.54 nM in assay [2] and 29 nM in assay [3].

B3: non-glycosylated ANTIBODY A (antibody, human IgG1, kappa, V domains shown)
VH: QVELVESGGGLVQPGGSLRLSCAASGFTFSSYAMSWVRQAPGKGLEWVSAINASGTRTYYADSVKGRFTISRDNSKNTLYLQMNSLRAEDTAVYYCARGKGNTHKPYGYVRYFDVWGQGTLVTVSS
VL: DIVLTQSPATLSLSPGERATLSCRASQSVSSSYLAWYQQKPGQAPRLLIYGASSRATGVPARFSGSGSGTDFTLTISSLEPEDFATYYCLQIYNMPITFGQGTKVEIKR
modifications: Asn52 not glycosylated; N-linked glycan at Asn306 (Fc)
notes: Human IgG1 kappa, made in CHO cells; no glycan in the variable region; also called non-glycosylated ANTIBODY A isoform; non-glycosylated isoform
For the molecule B3, the Kd was 0.19 nM in assay [7], 0.42 nM in assay [2], 1.99 nM in assay [8] and 2.82 nM in assay [3].
